Data published in patent publication US6727084B1, “Cold-active beta-galactosidase, the process for its preparation and the use thereof” (Universite de Liege, priority 1999, dated 2004).

Substrate: OC[C@H]1O[C@@H](O[C@H]2[C@H](O)[C@@H](O)C(O)O[C@@H]2CO)[C@H](O)[C@@H](O)[C@H]1O
Test: kinetics of LMG P-19143 β-galactosidase with lactose as substrate (galactose dehydrogenase assay)
Assay type: biochemical, Pseudoalteromonas haloplanktis LMG P-19143
Conditions: other: lactose (1 mM to 50 mM) as substrate, 25° C., pH 7.3
Excerpt: The definition of enzyme activity units can be defined according to the substrate used with lactose as a substrate, the unit of activity is defined as the amount of enzyme which releases one micro-mole glucose in one minute under standard reaction conditions (temperature, pH). Another commonly used substrate is ortho-nitrophenyl-β-D galactopyranoside (ONPG) and in this case, the unit of activity is defined as the amount of enzyme which hydrolyses one micro-mole of ONPG in one minute under standard reaction conditions.
Km was also determined at 25° C. with lactose (1 mM to 50 mM) as a substrate.

B1: Pseudoalteromonas haloplanktis LMG P-19143 cold-active β-galactosidase (lac Z), native, SEQ ID NO: 2 (Pseudoalteromonas haloplanktis) (protein)
chain: MTSLQHIINRRDWENPITVQVNQVKAHSPLNGFKTIEDARENTQSQKKSLNGQWDFKLFDKPEAVDESLLYEKISKELSGDWQSITVPSNWQLHGFDKPIYCNVKYPFAVNPPFVPSDNPTGCYRTEFTITPEQLTQRNHIIFEGVNSAFHLWCNGQWVGYSQDSRLPSEFDLSELLVVGTNRIAVMVIRWSDGSYLEDQDMWWLSGIFRDVNLLTKPQSQIRDVFITPDLDACYRDATLHIKTAINAPNNYQVAVQIFDGKTSLCEPKIQSTNNKRVDEKGGWSDVVFQTIAIRSPKKWTAETPYLYRCVVSLLDEQGNTVDVEAYNIGFRKVEMLNGQLCVNGKPLLIRGVNRHEHHPENGHAVSTADMIEDIKLMKQNNFNAVRTAHYPNHPLFYELCDELGLYVVDEANIETHGMFPMGRLASDPLWAGAFMSRYTQMVERDKNHASIIIWSLGNECGHGANHDAMYGWSKSFDPSRPVQYEGGGANTTATDIICPMYSRVDTDIKDDAVPKYSIKKWLSLPGETRPLILCEYAHAMGNSLGSFDDYWQAFREYPRLQGGFIWDWVDQGLSKIDENGKHYWAYGGDFGDELNDRQFCINGLLFPDRTPHPSLFEAKYSQQHLQFTLREQNQNQNQNQYSIDVFSDYVFRHTDNEKLVWQLIQNGVCVEQGEMALNIAPQSTHTLTIKTKTAFEHGAQYYLNLDVALINDSHFANANHVMDSEQFKLINSNNLNSKSFASATEKSVISVNETDSHLSIENNTFKLVFNQQSGLIEQWLQDDTQVISSPLVDNFYRAPLDNDIGVSEVDNLDPNAWEARWSRAGIGQWQRTCSSINAVQSSVDVRITCVFNYEFNGVLQAQTQWLYTLNNTGTISLNVDVNLNDTLPPMPRIGLSTTINKQSDTKVNWLGLGPFENYPDRKSAARFGYYSLSLNELYTPYIFPTDNGLRSDCQLLSINNLIVTGAFLFAASEYSQNMLTQAKHTNELIADDCIHVHIDHQHMGVGGDDSWSPSTHKEYLLEQKNYNYSLTLTGGITT
notes: ORF of 1038 residues
Km: 2400 µM
